From PMC5430920 (Scientific Reports, 2017)

Target: the molecule itself
Test: SEC

B1: Mycobacterium tuberculosis orotate phosphoribosyltransferase (enzyme)
chain: MAGPDRAELAELVRRLSVVHGRVTLSSGREADYYVDLRRATLHHRASALIGRLMRELTADWDYSVVGGLTLGADPVATAIMHAPGRPIDAFVVRKSAKAHGMQRLIEGSEVTGQRVLVVEDTSTTGNSALTAVHAVQDVGGEVVGVATVVDRATGAAEAIEAEGLRYRSVLGLADLGLD
notes: also called MtOPRT; M. tuberculosis OPRTase
stoichiometry N: 2
